# Measurements: the supplement of paper PMC10065799, “High-throughput profiling of sequence recognition by tyrosine kinases and SH2 domains using bacterial peptide display” (eLife, 2023)
# Biological target: SHP2-C SH2
# Test: SH2 binding enrichment of the phosphorylated peptide, bacterial display (enrichment ratio); higher = better substrate or ligand; peptides without Tyr show the background
# 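For SH2 binding enrichment of the phosphorylated peptide, bacterial display in this document: peptide library displayed on the E. coli surface as eCPX fusions, selected cells deep-sequenced, score is each peptide's frequency after selection divided by its frequency in the input.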
# 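For phosphorylation enrichment, bacterial display in this document: 11-residue human phosphosite peptides and single-mutation variants displayed on the E. coli surface, counted by deep sequencing, each peptide's frequency after selection divided by its frequency in the unselected input library; frequency after pTyr selection over input frequency; kinase dosed for 20-30% of maximal phosphorylation in three min.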
row,Sequence,SH2 binding enrichment
1,FRQLQYCPSVE [CTNND2_Y508_YF],0.658
2,RLLVVYPWTRR [HBB_Y36_Q40R],0.448
3,PYVYYYSYLLK [PTEN_Y178_R173P],0.598
4,LPHVIYCRLWR [SMAD2_Y128],0.723
5,GDPVQYNRTTD [MLPH_Y454],0.738
6,SIKGKYVTALY [KCNH2_Y611_D609G],0.776
7,VFSTDCFRVGG [NTRK2_Y706_Y706C_YF],1.13
8,QDKDLYPCPGT [RLF_Y671_R668K],0.801
9,QLYGAYLRIHA [BSCL2_Y213],1.35
10,TKFRNYLIPNG [CYP2C8_Y379_K383N],0.724
11,SETDDYAEIID [PTK2_Y397],0.627
12,EAIMTYVSSFF [ACTN4_Y260_K255E_YF],0.642
13,SLHPGYNFRYA [P2RX7_Y291_Y288H],1.93
14,FGSSSSGGAGG [RPA2_Y14_Y14S_YF],0.622
15,EREYKYGAHKY [OAT_Y50_N54K],0.639
16,DDERGYRRVRS [GIGYF2_Y268],0.623
17,NFRTTCVNANE [KCNH2_Y475_Y475C],0.536
18,KKFPDYIQIAM [SGMS2_Y59_YF],0.946
19,QISQDYGVLLE [PRDX3_Y172_R170Q],0.482
20,SFCFRYRCAAQ [SUMF1_Y344_R349Q_YF],2.02

# Results, then the sequence that gave them:
row,SH2 binding enrichment,Sequence
1,0.903,AEMKRYAESSS [RAI14_Y869]
2,0.758,EPYEVYRIVPE [IRF8_Y110_K108E]
3,0.722,TAPFNYSFIFK [RAB14_Y8_YF]
4,0.705,SSDKVCAHQMV [MLH1_Y379_Y379C]
5,0.882,TYGVAYRAKDK [CDK11B_Y453_V452A]
6,0.561,REGAKYVSHSA [ASS1_Y113_G117S]
7,0.739,IRTIDYRFTVC [IDS_Y497_W502C_YF]
8,0.908,EAEPYYCSLRD [NPHS1_Y1139_R1140C]
9,0.794,SVVVPDEPPEV [TP53_Y220_Y220D]
10,0.718,AGRTGYDNREI [BCL2_Y9]
11,2.22,RALCHYFKLNI [ETV6_Y401_R399C_YF]
12,0.494,HSFNSYTFPRL [PAK5_Y316_YF]
13,0.775,SYTDPYAQPSL [KMT2D_Y2378_P2382S]

# Biological target: Grb2 SH2 (UniProt P62993)
# Test: as above
row,Sequence,SH2 binding enrichment
1,FRQLQYCPSVE [CTNND2_Y508_YF],0.876
2,RLLVVYPWTRR [HBB_Y36_Q40R],0.506
3,PYVYYYSYLLK [PTEN_Y178_R173P],0.873
4,LPHVIYCRLWR [SMAD2_Y128],0.991
5,GDPVQYNRTTD [MLPH_Y454],0.812
6,SIKGKYVTALY [KCNH2_Y611_D609G],0.826
7,VFSTDCFRVGG [NTRK2_Y706_Y706C_YF],0.87
8,QDKDLYPCPGT [RLF_Y671_R668K],0.832
9,QLYGAYLRIHA [BSCL2_Y213],1.27
10,TKFRNYLIPNG [CYP2C8_Y379_K383N],0.946
11,SETDDYAEIID [PTK2_Y397],1.04
12,EAIMTYVSSFF [ACTN4_Y260_K255E_YF],0.659
13,SLHPGYNFRYA [P2RX7_Y291_Y288H],1.09
14,FGSSSSGGAGG [RPA2_Y14_Y14S_YF],0.854
15,EREYKYGAHKY [OAT_Y50_N54K],0.735
16,DDERGYRRVRS [GIGYF2_Y268],0.86
17,NFRTTCVNANE [KCNH2_Y475_Y475C],0.723
18,KKFPDYIQIAM [SGMS2_Y59_YF],0.93
19,QISQDYGVLLE [PRDX3_Y172_R170Q],0.52
20,SFCFRYRCAAQ [SUMF1_Y344_R349Q_YF],1.52

# Further lines, results first:
row,SH2 binding enrichment,Sequence
1,0.875,AEMKRYAESSS [RAI14_Y869]
2,0.981,EPYEVYRIVPE [IRF8_Y110_K108E]
3,0.581,TAPFNYSFIFK [RAB14_Y8_YF]
4,0.984,SSDKVCAHQMV [MLH1_Y379_Y379C]
5,0.881,TYGVAYRAKDK [CDK11B_Y453_V452A]
6,0.878,REGAKYVSHSA [ASS1_Y113_G117S]
7,0.85,IRTIDYRFTVC [IDS_Y497_W502C_YF]
8,0.931,EAEPYYCSLRD [NPHS1_Y1139_R1140C]
9,0.755,SVVVPDEPPEV [TP53_Y220_Y220D]
10,0.779,AGRTGYDNREI [BCL2_Y9]
11,1.34,RALCHYFKLNI [ETV6_Y401_R399C_YF]
12,0.699,HSFNSYTFPRL [PAK5_Y316_YF]
13,0.823,SYTDPYAQPSL [KMT2D_Y2378_P2382S]

# Biological target: c-Src SH2
# Test: as above
row,Sequence,SH2 binding enrichment
1,FRQLQYCPSVE [CTNND2_Y508_YF],0.489
2,RLLVVYPWTRR [HBB_Y36_Q40R],0.465
3,PYVYYYSYLLK [PTEN_Y178_R173P],0.669
4,LPHVIYCRLWR [SMAD2_Y128],0.679
5,GDPVQYNRTTD [MLPH_Y454],0.459
6,SIKGKYVTALY [KCNH2_Y611_D609G],0.472
7,VFSTDCFRVGG [NTRK2_Y706_Y706C_YF],0.816
8,QDKDLYPCPGT [RLF_Y671_R668K],0.658
9,QLYGAYLRIHA [BSCL2_Y213],1.13
10,TKFRNYLIPNG [CYP2C8_Y379_K383N],0.462
11,SETDDYAEIID [PTK2_Y397],0.561
12,EAIMTYVSSFF [ACTN4_Y260_K255E_YF],0.493
13,SLHPGYNFRYA [P2RX7_Y291_Y288H],0.556
14,FGSSSSGGAGG [RPA2_Y14_Y14S_YF],0.358
15,EREYKYGAHKY [OAT_Y50_N54K],0.564
16,DDERGYRRVRS [GIGYF2_Y268],0.656
17,NFRTTCVNANE [KCNH2_Y475_Y475C],0.387
18,KKFPDYIQIAM [SGMS2_Y59_YF],0.76
19,QISQDYGVLLE [PRDX3_Y172_R170Q],0.516
20,SFCFRYRCAAQ [SUMF1_Y344_R349Q_YF],1.45

# The next lines start with the values.
row,SH2 binding enrichment,Sequence
1,0.448,AEMKRYAESSS [RAI14_Y869]
2,0.578,EPYEVYRIVPE [IRF8_Y110_K108E]
3,0.724,TAPFNYSFIFK [RAB14_Y8_YF]
4,0.714,SSDKVCAHQMV [MLH1_Y379_Y379C]
5,0.48,TYGVAYRAKDK [CDK11B_Y453_V452A]
6,0.473,REGAKYVSHSA [ASS1_Y113_G117S]
7,0.407,IRTIDYRFTVC [IDS_Y497_W502C_YF]
8,1.91,EAEPYYCSLRD [NPHS1_Y1139_R1140C]
9,0.576,SVVVPDEPPEV [TP53_Y220_Y220D]
10,0.504,AGRTGYDNREI [BCL2_Y9]
11,1.5,RALCHYFKLNI [ETV6_Y401_R399C_YF]
12,0.481,HSFNSYTFPRL [PAK5_Y316_YF]
13,2.6,SYTDPYAQPSL [KMT2D_Y2378_P2382S]

# Tested on: c-Src
# Test: phosphorylation enrichment, bacterial display (enrichment ratio); higher = better substrate or ligand; peptides without Tyr show the background
row,Sequence,phosphorylation enrichment
1,FRQLQYCPSVE [CTNND2_Y508_YF],0.456
2,AEMKRYAESSS [RAI14_Y869],0.382
3,EPYEVYRIVPE [IRF8_Y110_K108E],6.54
4,RLLVVYPWTRR [HBB_Y36_Q40R],0.68
5,TAPFNYSFIFK [RAB14_Y8_YF],0.377
6,PYVYYYSYLLK [PTEN_Y178_R173P],3.14
7,LPHVIYCRLWR [SMAD2_Y128],2.05
8,SSDKVCAHQMV [MLH1_Y379_Y379C],0.361
9,TYGVAYRAKDK [CDK11B_Y453_V452A],0.829
10,GDPVQYNRTTD [MLPH_Y454],0.452
11,REGAKYVSHSA [ASS1_Y113_G117S],0.667
12,SIKGKYVTALY [KCNH2_Y611_D609G],0.318
13,VFSTDCFRVGG [NTRK2_Y706_Y706C_YF],0.44
14,QDKDLYPCPGT [RLF_Y671_R668K],0.483
15,QLYGAYLRIHA [BSCL2_Y213],3.58
16,TKFRNYLIPNG [CYP2C8_Y379_K383N],0.484
17,SETDDYAEIID [PTK2_Y397],0.744

row,Sequence,phosphorylation enrichment
1,IRTIDYRFTVC [IDS_Y497_W502C_YF],0.469
2,EAIMTYVSSFF [ACTN4_Y260_K255E_YF],0.975
3,EAEPYYCSLRD [NPHS1_Y1139_R1140C],4.11
4,SVVVPDEPPEV [TP53_Y220_Y220D],0.522
5,SLHPGYNFRYA [P2RX7_Y291_Y288H],0.454
6,FGSSSSGGAGG [RPA2_Y14_Y14S_YF],0.458
7,EREYKYGAHKY [OAT_Y50_N54K],0.359
8,DDERGYRRVRS [GIGYF2_Y268],0.461
9,AGRTGYDNREI [BCL2_Y9],0.537
10,NFRTTCVNANE [KCNH2_Y475_Y475C],0.428
11,KKFPDYIQIAM [SGMS2_Y59_YF],0.556
12,QISQDYGVLLE [PRDX3_Y172_R170Q],0.981
13,RALCHYFKLNI [ETV6_Y401_R399C_YF],0.667
14,HSFNSYTFPRL [PAK5_Y316_YF],0.374
15,SFCFRYRCAAQ [SUMF1_Y344_R349Q_YF],0.555
16,SYTDPYAQPSL [KMT2D_Y2378_P2382S],0.576
